Legend:
[1] = target: GST-Atrophin-1 Interacting Protein PDZ domain 2 (Homo sapiens (Human)), Q86UL8; assay: G' assay; also: key of the grades not given here
[2] = target: T1, GST-PDZK1 PDZ domain 3 (Homo sapiens (Human)), A8MUH7; assay: G' assay; also: key of the grades not given here
T1 chain: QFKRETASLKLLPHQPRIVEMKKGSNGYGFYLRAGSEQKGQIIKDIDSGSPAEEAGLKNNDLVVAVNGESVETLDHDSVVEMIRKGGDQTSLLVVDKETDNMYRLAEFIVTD

[3] = target: T2, GST-GRIP 1 PDZ domain 6 (Mus musculus (Mouse)), Q925T6; assay: G' assay; also: key of the grades not given here
T2 chain: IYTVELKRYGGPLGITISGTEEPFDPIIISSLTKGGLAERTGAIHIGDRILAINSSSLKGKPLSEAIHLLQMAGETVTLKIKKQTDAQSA

[4] = target: T3, GST-KIAA1415 PDZ domain 1 (Homo sapiens (Human)), Q8TCU6; assay: G' assay; also: key of the grades not given here
T3 chain: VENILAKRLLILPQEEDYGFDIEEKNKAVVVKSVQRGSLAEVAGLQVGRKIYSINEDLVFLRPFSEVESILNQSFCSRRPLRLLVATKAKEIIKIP

[5] = target: T4, GST-KIAA1719 PDZ domain 5 (Homo sapiens (Human)), Q9C0E4; assay: G' assay; also: key of the grades not given here
T4 chain: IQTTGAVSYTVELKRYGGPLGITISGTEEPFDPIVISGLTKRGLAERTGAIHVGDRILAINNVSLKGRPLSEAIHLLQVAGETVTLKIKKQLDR

[6] = target: T5, GST-AIPC PDZ domain 3 (Homo sapiens (Human)), O15018; assay: G' assay; also: key of the grades not given here
T5 chain: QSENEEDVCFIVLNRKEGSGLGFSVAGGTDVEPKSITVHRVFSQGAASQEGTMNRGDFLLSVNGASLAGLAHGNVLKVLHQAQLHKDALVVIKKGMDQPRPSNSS

[7] = target: T6, GST-DLG1 PDZ domain 3 (Homo sapiens), Q12959; assay: G' assay; also: key of the grades not given here
T6 chain: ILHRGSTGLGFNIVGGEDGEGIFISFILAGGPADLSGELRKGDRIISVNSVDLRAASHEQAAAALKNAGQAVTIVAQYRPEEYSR

[8] = target: T7, GST-PDZK1 PDZ domain 1 (Homo sapiens (Human)), Q5T2W1; assay: G' assay; also: key of the grades not given here
T7 chain: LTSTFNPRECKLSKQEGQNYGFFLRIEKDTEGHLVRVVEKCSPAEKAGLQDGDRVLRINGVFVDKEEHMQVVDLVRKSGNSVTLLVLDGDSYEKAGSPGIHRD

[9] = target: T8, GST-MUPP1 PDZ domain 9 (Homo sapiens (Human)), O75970; assay: G' assay; also: key of the grades not given here
T8 chain: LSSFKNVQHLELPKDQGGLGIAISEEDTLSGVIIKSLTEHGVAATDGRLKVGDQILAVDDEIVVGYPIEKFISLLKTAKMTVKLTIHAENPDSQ

[10] = target: T9, GST-MUPP1 PDZ domain 7 (Homo sapiens (Human)), O75970; assay: G' assay; also: key of the grades not given here
T9 chain: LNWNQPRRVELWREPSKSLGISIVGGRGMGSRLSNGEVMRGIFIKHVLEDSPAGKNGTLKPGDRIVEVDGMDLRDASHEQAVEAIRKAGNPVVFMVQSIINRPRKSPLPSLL

[11] = target: T10, GST-PDZ-73 PDZ domain 2 (Homo sapiens (Human)), Q9Y6N9; assay: G' assay; also: key of the grades not given here
T10 chain: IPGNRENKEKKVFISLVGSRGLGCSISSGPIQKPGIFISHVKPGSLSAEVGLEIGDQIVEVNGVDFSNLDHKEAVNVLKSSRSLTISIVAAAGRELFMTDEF

[12] = target: GST-DLG1 PDZ domain 1 (Homo sapiens), Q12959; assay: G assay titration, PDZ 0.5 ug/ml
[13] = target: T11, GST-KIAA0751(L) PDZ domain 1 (Mus musculus (Mouse)), Q9EQZ7; assay: G' assay; also: key of the grades not given here
T11 chain: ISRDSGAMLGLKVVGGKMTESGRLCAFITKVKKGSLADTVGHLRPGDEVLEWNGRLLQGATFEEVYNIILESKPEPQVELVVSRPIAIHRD

[14] = target: T12, GST-FLJ21687 PDZ domain 1 (Homo sapiens (Human)), Q9H6Y5; assay: G' assay; also: key of the grades not given here
T12 chain: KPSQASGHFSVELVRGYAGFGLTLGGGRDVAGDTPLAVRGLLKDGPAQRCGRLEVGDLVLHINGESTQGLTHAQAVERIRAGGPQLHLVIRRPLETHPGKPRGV

[15] = target: T13, GST-rat SHANK 3 PDZ domain 1 (rat), Q9JLU4; assay: G' assay; also: key of the grades not given here
T13 chain: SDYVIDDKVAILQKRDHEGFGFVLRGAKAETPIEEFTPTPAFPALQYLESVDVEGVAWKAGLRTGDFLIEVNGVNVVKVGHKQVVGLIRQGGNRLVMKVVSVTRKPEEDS

[16] = target: T14, GST-TIP1 PDZ domain 1 (Table 9 insert) (Homo sapiens (Human)), O14907; assay: G assay titration, PDZ 0.5 ug/ml
T14 chain: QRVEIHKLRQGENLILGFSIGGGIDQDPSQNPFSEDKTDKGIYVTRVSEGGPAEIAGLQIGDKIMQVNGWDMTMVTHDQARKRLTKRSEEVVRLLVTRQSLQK

[17] = target: T15, GST-MUPP1 PDZ domain 12 (Homo sapiens (Human)), O75970; assay: G' assay; also: key of the grades not given here
T15 chain: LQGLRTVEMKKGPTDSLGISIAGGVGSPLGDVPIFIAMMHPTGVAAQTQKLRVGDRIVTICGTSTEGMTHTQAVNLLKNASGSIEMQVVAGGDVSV

[18] = target: T16, GST-KIAA1719 PDZ domain 6 (Homo sapiens (Human)), Q9C0E4; assay: G' assay; also: key of the grades not given here
T16 chain: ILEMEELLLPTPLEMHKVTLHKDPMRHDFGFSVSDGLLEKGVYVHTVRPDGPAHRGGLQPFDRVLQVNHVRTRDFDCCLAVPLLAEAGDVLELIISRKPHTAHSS

[19] = target: T17, GST-TIAM 2 PDZ domain 1 (Homo sapiens (Human)), Q8IVF5; assay: G' assay; also: key of the grades not given here
T17 chain: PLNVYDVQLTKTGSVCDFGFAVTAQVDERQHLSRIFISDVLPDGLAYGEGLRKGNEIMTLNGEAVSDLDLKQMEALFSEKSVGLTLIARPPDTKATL

Sequence of GST-Atrophin-1 Interacting Protein PDZ domain 2 (Homo sapiens (Human)), Q86UL8 (Q86UL8 other isoform, or with tags, fused parts or gaps): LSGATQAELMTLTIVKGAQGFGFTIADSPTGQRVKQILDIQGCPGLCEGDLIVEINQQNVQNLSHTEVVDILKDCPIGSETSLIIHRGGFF

B1: TAX (peptide)
peptide: QISPGGLEPPSEKHFRETEV
modifications: not checked
Classification [1]: 1 A450 class

B2: ephrin B2 (peptide)
peptide: ILNSIQVMRAQMNQIQSVEV
modifications: not checked
Classification [2]: 1 A450 class
Classification [3]: 3 A450 class
Classification [4]: 1 A450 class
Classification [5]: 4 A450 class
Classification [6]: 1 A450 class
Classification [7]: 1 A450 class
Classification [8]: 1 A450 class

B3: MINT-1 (peptide)
peptide: KTMPAAMYRLLTAQEQPVYI
modifications: not checked
Classification [9]: 3 A450 class
Classification [10]: 3 A450 class

B4: KIA 1481 (peptide)
peptide: PIPAGGCTFSGIFPTLTSPL
modifications: not checked
Classification [11]: 1 A450 class

B5: AdenoE4 typ9 (peptide)
peptide: VGTLLLERVIFPSVKIATLV
modifications: not checked
Kd [12]: 100 nM

B6: alpha-2A Adrenergic receptor (peptide)
peptide: HDFRRAFKKILARGDRKRIV
modifications: not checked
Classification [13]: 3 A450 class
Classification [14]: 1 A450 class

B7: a-actinin 2 (peptide)
peptide: VPGALDYAAFSSALYGESDL
modifications: not checked
Classification [15]: 1 A450 class
Kd [16]: 1000 nM

B8: CSPG4 (chondroitin sulfae proteoglycan 4, melanoma-associated) (peptide)
peptide: ELLQFCRTPNPALKNGQYWV
modifications: not checked
Classification [17]: 1 A450 class
Classification [18]: 5 A450 class
Classification [19]: 3 A450 class

— patent US20050282743A1, “Molecular interactions in cells” (Arbor Vita Corporation, priority 2001, published 2005)
